Laboratory results as given in the DeepSol protein solubility set.

assay: soluble on expression in E. coli; label from the status in PepcDB or PDB records

| Sequence | soluble on expression in E. coli |
| --- | --- |
| MRIGHGFDVHKFGENGSGPLIIGGVRIPYEKGLLAHSDGDVALHAATDALLGAAALGDIGKLFPDTDPAFKGADSRGLLREAYRRILAKGYKLGNLDITIIAQAPKMAPHIPQMRVNLAEDLQCHMDDINVKATTTEQLGFTGRGEGIACEAVVLLVNVEQG | not soluble |
| MGSDKIHHHHHHADKFVAKCPNEIFIGAILEANSINQDTYKFLKISMNPINMGYTIPIKSQTITPSYNNMMKAIHEALKTNDVLKSNYSFSFVIKKIKSYQELAVNWGQNINLQQLLGITPDYKPQKNIILIDINQSFFSIIMDMPESLSTDPQVLQQLDKLAFINSIQFGRKVILVIESNIDYDKLQEAIDNLLKSKEVSQKELAILANSNIRLMTIGNKEIKDINPDNPFTSILTYLSSTVTPDDFGGPISFSASNIKDNSVFVNYFNVQ | not soluble |
| MSLKRMLAEFEKIQAILMAFPHEFSDWAYCIKEARESFLNIIQTIAKHAKVLVCVHTNDTIGYEMLKNLPGVEIAKVDTNDTWARDFGAISIENHGVLECLDFGFNGWGLKYPSNLDNQVNFKLKSLGFLKHPLKTMPYVLEGGSIESDGAGSILTNTQCLLEKNRNPHLNQNGIETMLKKELGAKQVLWYSYGYLKGDDTDSHTDTLARFLDKDTIVYSACEDKNDEHYTALKKMQEELKTFKKLDKTPYKLIPLEIPKAIFDENQQRLPATYVNFLLCNDALIVPTYNDPKDALILETLKQHTPLEVIGVDCNTLIKQHGSLHCVTMQLYEGGSHHHHHH | soluble |
| MHHHHHHHHIGGDFAVVKAKKSLERRGFGVKRGDKIYLHPLEVVYLQIKGIESFGELEDVLSWAESRMEDFSTYYFVYEDLRDRGNKVKIQGEFLLTKKPYLPISERKTIRMEEIAEKARNFDELRLAVVDEESEITYFRVYEPDMMGEQKEELPEIAGVLSDEYVITKQTEIFSRYFYGSEKGDLVTLSLIESLYLLDLGKLNLLNADREELVKRAREVERNFDRRYEVYRNLKERGFVVKTGFKFGSEFRVYRKVESVDDLPHSEYLVDIADSREIRLIDLARAVRLAQNVRKRMVFAYGKNYLCFERVKV | soluble |
| MSLQHNGHSYTVEGLINDSTLNGQTLYISRYDDGMKVDSTQVTNGQFKFTGKADIPCFCRIDAGREYANFILEGGNIQVNVLTHNDPKGTPMNEEYTHISDKTSELVTELRKRHAAIEQQTEDKSEQLRLKKEYADTYWHPTYTRLYKDMFMKNPDNALGEFAIRELAMCALPEEMDTIFAASGPWLKSLSVYHRIEKQFQGMKATAVGQKFTDFSGKTIDGAASSLSDFVGKGQYTLVDFWASWCGPCRSESPHIAELYNTYKDKGLTVLGVAVWDKPENTKKAIKELNIDWPQIIDTGMTPMDLYGVKGIPFILLFGPDGTIIARDLRGEGMKNKVAEVLNNKEGHHHHHH | soluble |
| MGSDKIHHHHHHMDVRRPIREAVNNRRKPKFLSVSFNQDDSCFSVALENGFRIFNTDPLTSKLSKTFKESATNQSRGTGIGYTRMLYRTNYIALVGGGKRPRHALNKLIIWDDLLQKETITLKFMSSIKDVFLSRIHIVVVLENTIEIFQFQTNPQRICPILDIPPNGSVDYVVCSSKHLQSQASQSQSKILEIIAFPSNKCVGQIQVADLSQIKYNSQNPKESALLPTSIIKAHKNPIKLVRLNRQGTMVATCSVQGTLIRIFSTHNGTLIKEFRRGVDKADIYEMSFSPNGSKLAVLSNKQTLHIFQIFETTNTETNTPDHSRANGSSHPLKNYIPKGLWRPKYLDSVWSICNAHLKNPIFDAHRNDNSGDVTHDNEFYKDRCRIGWCQDSNNREQDDSLVLVWQNSGIWEKFVILEKEQQDSSKTHYSLNESLRNEDTKSAGEPTRWELVRESWREL | not soluble |
| CEGGVDMQQSQVQLQCPLTPPRGLQVSIQGEAVAVRPGEDVLFVVRQEQGDVLTTKYQVDLGDGFKAMYVNLTLTGEPIRHRYESPGIYRVSVRAENTAGHDEAVLFVQV | soluble |
| AIACGDCVEKEYPNRGTTCLENGSFLLNFAGCAVCSKRDFMLITNRSLKEEDGEEIVTYDRIYHAVSVVWQS | soluble |
| NLPNIVILATGGTIAGSAAANTQTTGYKAGALGVETLIQAVPELKTLANIKGEQVASIGSENMTSDVLLTLSKRVNELLARSDVDGVVITHGTDTLDESPYFLNLTVKSDKPVVFVAAMRPATAISADGPMNLYGAVKVAADKNSRGRGVLVVLNDRIGSARFISKTNASTLDTFKAPEEGYLGVIIGDKIYYQTRLDKVHTTRSVFDVTNVDKLPAVDIIYGYQDDPEYMYDASIKHGVKGIVYAGMGAGSVSKRGDAGIRKAESKGIVVVRSSRTGSGIVPPDAGQPGLVADSLSPAKSRILLMLALTKTTNPAVIQDYFHAY | soluble |
| SLRIREIEPIVLTSKEKGSATWASIMIVTRVITENGEVGYGEAVPTLRVISVYNAIKQVSKAYIGKEVEEVEKNYHEWYKQDFYLARSFESATAVSAIDIASWDIIGKELGAPIHKLLGGKTRDRVPVYANGWYQDCVTPEEFAEKAKDVVKMGYKALKFDPFGPYYDWIDERGLREAEERVKAVREAVGDNVDILIEHHGRFNANSAIMIAKRLEKYNPGFMEEPVHHEDVIGLRKYKASTHLRVALGERLISEKETAFYVEEGLVNILQPDLTNIGGVTVGRSVIKIAEANDVEVAFHNAFGSIQNAVEIQLSAVTQNLYLLENFYDWFPQWKRDLVYNETPVEGGHVKVPYKPGLGVSINEKIIEQLRAEPIPLDVIEEPVWVVKGTWKNYGV | not soluble |
| GPGSMGRASKDKRDIYYRKAKEEGYRARSAYKLLQIHEEFNILDPAEIRTGAVDLCAAPGSWSQVLAQHFKMISANLTAASEGDSLPAQTPRVVAVDLQEMAPIDGVTLLQGDITSEVTAREIIRLLNAPTSTGVVRTDDEQQQPQPASSSFSSSAPSPALGASPRKADIVLCDGAPDVTGMHELDEYLQHHLLLAALHITTFVLRAGGCFLTKIFRGPNTAFLVAKSQLFFQQVRVVKPKSSRNASMESFLLCQGFRMPLGYVPRFVGAAAPAAASSATTGCSRGAASASAGCGSRVEADNEEGVKGERSETAIGSGGPLRASGFTPEAPLYCYDTTASFSHASDGGAAAAATVHDVAHHNQRTSCTLADGVLAPFLSCGDLSGFDADMCYDRDEDADVLEPVQPPLQAPYLAAAAASPSQLAGVADGRDTEADASQKKKIRVESPTAIAGRDSSTGGEEQQ | not soluble |
| MFRTAETSRDTLITTAYRLHRTRWRILEPYRRLKNALKKLQEDYLKSKEANALMRYVKLGQSVREVAMLEKQYWKLLNIPAQEGTEDANCYVVKIIELLEDTPTQLPPTRGIGALLQSTIGKPAEANVDTVLHDSLKARKSEDLVKECEGLYAQLYRLTKKYLGLRRLIKELHDKYEATRMFPIVPRYAMLKKMIKATLRAPEFADICHEQTE | not soluble |
| MHAYLHCLSHSPLVGYVDPAQEVLDEVNGVIASARERIAAFSPELVVLFAPDHYNGFFYDVMPPFCLGVGATAIGDFGSAAGELPVPVELAEACAHAVMKSGIDLAVSYCMQVDHGFAQPLEFLLGGLDKVPVLPVFINGVATPLPGFQRTRMLGEAIGRFTSTLNKRVLFLGSGGLSHQPPVPELAKADAHMRDRLLGSGKDLPASERELRQQRVISAAEKFVEDQRTLHPLNPIWDNQFMTLLEQGRIQELDAVSNEELSAIAGKSTHEIKTWVAAFAAISAFGNWRSEGRYYRPIPEWIAGFGSLSARTEN | not soluble |
| MGHHHHHHSHMAESHPWSGRPSSSPRRSSTFANYAWKHTIKPNRILIRNARPLVINFATDRLPIIKPVDQIILEDAGTVGSALNLPSESICTRPGLLLFGHYNNDVPVTPLVDFKPDEPLQVVLTAHKTIVVPPGEFVMIIVCVNFEKIKSLDLIIHEMSTSNIPLPPTCGQTFKNFNTATPSLEIYGDVIECNDDQKTCVFTAVFPGLHRRCSLHGPLNFMGFVNSVNITGTILRVYYSGVSEAAPDSILVKFKTSSAVAFSKNPCQGHVPSHDDTLIPLVYTGPTLRLLPLETISIPFNTSFVAQNPDLKAIIYDNNLKDIRISATMWTGEQTPILAHNLTAAVKLIHSGTVFARAAFFSTKENKKACTLKLCPSTILLPGGELSLDTSTLPNCFK | not soluble |
| QDFPQSLIIDSFLVNDGKTRGLNLHLDRFRTACLEHGYAHHEQLDAFFAEALRSIPATGQWFPRLEATPTELRIALRPAPQLRGTTTLTSVAAVRPTPKYKGLDLDYLAELRCSSTTDDALLVTPAGVIAETTTAAIIAWDGTKWMSMAPARLESVTESLLINSARAQGEMVVTAALTVPEAQKLNLWAVNSLHGVTPVTHIDEVALPSNPQRSALLRGWLSQSEENIAQV | not soluble |
| MSLAPAAVLELPSPTGLHPVGRRTLHLVDRHRPDPWVPAARGRELMVSVSYPARSSGARPAAYMTRSEAQRLLELKGLAGVVPAATVAGTRTHAQADAPPAPGRFPLVLLSPGFSVPRTTLTALAVDVAARGYVVAAVDHAYESVGTEFPGGRVPPCVACDRVGVDVDEATVVRGRAADLSFVIDELTGRRSTGALARLIDPGRIGVAGHSIGGAAALATMAADRRVRAGVNLDGGFFVPDAGHRIGGRPFMMVGAEAVHGPGNTAGDWAATYDRLHGWKRWLTVSGAGHFSFTDIPWLAEQLGLPDPQVPLPGERGWYITRDYVGAFFDLHLRGLPQPLLHGPTSSHPEVGFHRPEGHHHHHH | soluble |
| MSLRKNESIRLIALGGVGEIGKNMYLAEVDEDLYVIDAGLMFPENEMLGIDIVIPDVSYLVQNKDRIRGIFLTHGHEDHIGALSYVLKKVSVPVYGTKLTLALAKAKMKEQDYRGKAELIEINSDSVLEFEHSSVSFFRTNHSIPDSVGICIHTSEGSIVYTGDFKFDQAAPELYKAEIGKMAGIGDNGVLCLLSDSTDAERPGYSTSEAVVQKAMAHAFYSAKGRVIAACFASDLIQIQHIFDAAEESGRKVAVAGKSIQKVYDLAVQLGYLAVKDDILIPLSELGSFRDHEVVILTAGSQGEPIEALQKMAKRTHRQVTIQEGDTVYLAAAPIRGGEVFIYKTMDMLYRAGATVITGKNSATASSHGSQEELKFMINLMKPKHFIPVHGEYKTLKSHGKLAAECGISQDSILIPEKGDVFEIKDGRIKQSGRVPAGNVLIDGIGVGDVGNIVLRDRRLLSQDGILIVVVTLNRHDKQIAAGPEIISRGFVYVRESEKLLVQAADMVKEIVHRGSQKESFDWAAVKQDMRDELNQFFYEKTKRRPMILPIIMEVKQEGHHHHHH | soluble |
| MGSDKIHHHHHHMINQERLVNEFMELVQVDSETKFEAEICKVLTKKFTDLGVEVFEDDTMAVTGHGAGNLICTLPATKDGVDTIYFTSHMDTVVPGNGIKPSIKDGYIVSDGTTILGADDKAGLASMFEAIRVLKEKNIPHGTIEFIITVGEESGLVGAKALDRERITAKYGYALDSDGKVGEIVVAAPTQAKVNAIIRGKTAHAGVAPEKGVSAITIAAKAIAKMPLGRIDSETTANIGRFEGGTQTNIVCDHVQIFAEARSLINEKMEAQVAKMKEAFETTAKEMGGHADVEVNVMYPGFKFADGDHVVEVAKRAAEKIGRTPSLHQSGGGSDANVIAGHGIPTVNLAVGYEEIHTTNEKIPVEELAKTAELVVAIIEEVAK | not soluble |
| MKSFQLVATAASGLEAIVGKEVARLGYDPKVENGKVYFEGDLSAIARANLWLRVADRVKIVVGVFKATTFDELFEKTKALPWEDYLPLDAQFPVAGKSVKSTLYSVPDCQAIVKKAIVNRVSEKYRRSGRLMETGALFKLEVSILKDEVTLTIDTSGAGLHKRGYRLAQGSAPIKETMAAALVLLTSWHPDRPFYDPVCGSGTIPIEAALIGQNIAPGFNREFVSETWDWMPKQVWADARQEAEDLANYDQPLNIIGGDIDARLIEIAKQNAVEAGLGDLITFRQLQVADFQTEDEYGVVVANPPYGERLEDEEAVRQLYREMGIVYKRMPTWSVYVLTSYELFEEVYGKKATKKRKLYNGYLRTDLYQYWGPRKPRPKKED | soluble |
